# According to patent publication US20090012275A1 (VIB VZW, published 2009):
# Ends that are not written are not given here. * marks the point of attachment. Biotin = O=C1N[C@H]2[C@H](CS[C@H]2CCCCC(=O)*)N1
# B1: biotin-AFVDAISAVYTA (peptide)
# peptide: Biotin-AFVDAISAVYTA
# notes: Synthetic biotinylated peptide; also called interferor molecule with a specificity for glucose-6-phosphate dehydrogenase; biotinylated detection peptide
# B2: biotin-ALFWLLVT (peptide)
# peptide: Biotin-ALFWLLVT
# notes: Synthetic biotinylated peptide (Jerine Peptide Technologies); biotin is part A, the peptide is part B; also called interferor molecule with a specificity for citrate synthase; biotinylated detection peptide
# Legend:
# [1] = target: T1, glucose-6-phosphate dehydrogenase from Leuconostoc mesenteroides (Sigma) (Leuconostoc mesenteroides, UniProt P11411 2-486); assay: dot blot: 0.3 mg target protein on nitrocellulose, 10 mM biotinylated peptide, streptavidin-HRP chemiluminescence
# T1 construct: Bought protein spotted on nitrocellulose
# T1 sequence: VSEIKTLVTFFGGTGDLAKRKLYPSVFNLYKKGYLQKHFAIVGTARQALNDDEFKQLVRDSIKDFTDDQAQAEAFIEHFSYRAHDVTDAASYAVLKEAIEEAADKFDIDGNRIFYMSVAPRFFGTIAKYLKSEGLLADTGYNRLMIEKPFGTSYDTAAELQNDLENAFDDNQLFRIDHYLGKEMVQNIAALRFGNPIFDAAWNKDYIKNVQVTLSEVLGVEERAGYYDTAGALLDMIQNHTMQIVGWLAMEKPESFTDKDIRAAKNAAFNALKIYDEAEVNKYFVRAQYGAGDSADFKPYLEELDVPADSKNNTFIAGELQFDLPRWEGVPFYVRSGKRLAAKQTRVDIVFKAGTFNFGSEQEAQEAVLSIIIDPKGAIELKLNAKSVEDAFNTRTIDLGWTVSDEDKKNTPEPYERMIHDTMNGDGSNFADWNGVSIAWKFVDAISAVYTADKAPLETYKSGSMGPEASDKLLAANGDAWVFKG
# [2] = target: T2, citrate synthase from porcine heart (Roche) (porcine, UniProt P00889 28-464); assay: as above
# T2 construct: Bought protein spotted on nitrocellulose
# T2 sequence (looked up): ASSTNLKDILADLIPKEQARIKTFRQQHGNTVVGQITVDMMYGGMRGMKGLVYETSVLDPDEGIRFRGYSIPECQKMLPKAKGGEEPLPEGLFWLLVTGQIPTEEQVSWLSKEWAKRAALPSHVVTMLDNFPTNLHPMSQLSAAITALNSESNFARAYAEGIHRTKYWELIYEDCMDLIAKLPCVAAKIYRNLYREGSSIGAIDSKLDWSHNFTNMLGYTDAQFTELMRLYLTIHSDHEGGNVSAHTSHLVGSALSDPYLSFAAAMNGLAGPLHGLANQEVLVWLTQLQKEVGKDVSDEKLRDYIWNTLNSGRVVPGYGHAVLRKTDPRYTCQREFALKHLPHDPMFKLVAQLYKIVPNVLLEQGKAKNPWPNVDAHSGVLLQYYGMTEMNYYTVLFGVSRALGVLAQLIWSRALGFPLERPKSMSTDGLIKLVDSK
Binder,binding result [1],binding result [2]
B1,binds,–
B2,–,binds
